The values below are quoted from earlier work in PMC10564622.

Like-named read-outs stand apart in the source and are kept apart here.

For data set [1], the target named is CUL3 NTD with N-terminal deletion (Homo sapiens) (UniProt Q13618).
Data set [2] has as its target CUL3 NTD (Homo sapiens) (UniProt Q13618).
The target is the same in data set [3]. This is another data set of the same source.

CUL3 NTD (Homo sapiens), sequence (Q13618 20-381): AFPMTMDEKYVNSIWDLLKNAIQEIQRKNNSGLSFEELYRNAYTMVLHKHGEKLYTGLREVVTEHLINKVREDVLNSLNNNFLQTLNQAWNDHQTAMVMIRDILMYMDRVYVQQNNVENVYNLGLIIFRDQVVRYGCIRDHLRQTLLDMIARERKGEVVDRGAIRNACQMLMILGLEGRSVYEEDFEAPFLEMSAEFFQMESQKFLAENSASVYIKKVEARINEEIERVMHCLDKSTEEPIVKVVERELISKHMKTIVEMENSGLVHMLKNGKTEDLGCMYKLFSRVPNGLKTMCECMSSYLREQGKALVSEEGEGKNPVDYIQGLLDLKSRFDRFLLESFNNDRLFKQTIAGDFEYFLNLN
SPOP BTB, sequence (O43791 170-300): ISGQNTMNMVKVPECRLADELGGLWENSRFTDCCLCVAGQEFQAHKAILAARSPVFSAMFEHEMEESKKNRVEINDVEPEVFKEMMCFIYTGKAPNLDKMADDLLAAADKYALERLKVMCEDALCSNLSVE
SPOP BTB-3-box, sequence (O43791 177-319): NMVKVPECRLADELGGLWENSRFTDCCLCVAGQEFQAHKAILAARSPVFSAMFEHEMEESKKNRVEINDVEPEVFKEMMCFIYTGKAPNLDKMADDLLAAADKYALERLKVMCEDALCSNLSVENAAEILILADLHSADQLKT
CUL3 NTD with N-terminal deletion (Homo sapiens), sequence (Q13618 20-381, stated change not applied): as the sequence (Q13618 20-381) above
KLHL3 BTB-BACK, sequence (Q9UH77 24-276): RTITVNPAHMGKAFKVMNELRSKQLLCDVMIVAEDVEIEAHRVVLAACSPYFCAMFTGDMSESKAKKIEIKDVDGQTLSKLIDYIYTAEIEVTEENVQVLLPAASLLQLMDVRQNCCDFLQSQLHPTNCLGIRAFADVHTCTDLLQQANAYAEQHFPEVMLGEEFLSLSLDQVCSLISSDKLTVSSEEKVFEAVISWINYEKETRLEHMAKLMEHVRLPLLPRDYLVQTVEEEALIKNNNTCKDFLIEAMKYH

One may read the Kd as the equilibrium constant for the complex coming apart. On to KLHL3 BTB-BACK (from UniProt Q9UH77), for which the Kd in data set [1] was 110 nM.

Consider SPOP BTB (from UniProt O43791), for which, in the data set with CUL3 NTD (Homo sapiens) [2], the Kd is 1000 nM.

With SPOP BTB-3-box (from UniProt O43791), the Kd in the data set with CUL3 NTD (Homo sapiens) [3] was 17 nM.
